Test results reported in patent US20220267415A1 (University of Texas, published 2022).

Tests used:
[1] = molecular target: B.1.526 Iota variant spike protein on recombinant USA-WA1/2020 virus (SARS-CoV-2); assay: cell-based or functional assay
[2] = molecular target: T1, wild type RBD protein (generated as in Ku et al. 2021) (SARS-CoV-2, UniProt P0DTC2 319-541)
[3] = molecular target: T1, wild type RBD protein (generated as in …); assay: binding KD on RBD protein, generally as Example 4
[4] = molecular target: T1, wild type RBD protein (generated as in …); assay: BLI competition, RBD on sensor, antibody then ACE2; competitor ACE2

Binder | Neutralization EC50 (PRNT) [1] | EC50 (read off the curve) [2] | Kd [3] | EC50 [4] | Fold-Increase in potency of IgM over IgG [1]
anti-SARS-CoV2-14 IgG (full lambda light chain) (antibody, V domains shown) VH: EVQLQQSGPGLVKPSQTLSLTCAISGDSVSSNSAAWNWIRQSPSRGLEWLGRTYYRSKWYNDYAVSVKSRITINPDTSKNQFSLQLNSVTPEDTAVYYCAREEQQLVHDYYYYGMDVWGQGTMVTVSS VL: QAVVTQPASVSGSPGQSITISCTGTSSDIGAYNYISWYQQHPGKAPKLIIYEVSNRPSGISYRFSGSKSGNTASLTISGLQAEDEANYYCSSYAGSISFGGGTKVTVL | 170 µg/mL |  |  |  | 
anti-SARS-CoV2-14 IgM (full lambda light chain) (antibody) heavy: EVQLQQSGPGLVKPSQTLSLTCAISGDSVSSNSAAWNWIRQSPSRGLEWLGRTYYRSKWYNDYAVSVKSRITINPDTSKNQFSLQLNSVTPEDTAVYYCAREEQQLVHDYYYYGMDVWGQGTMVTVSSGSASAPTLFPLVSCENSPSDTSSVAVGCLAQDFLPDSITFSWKYKNNSDISSTRGFPSVLRGGKYAATSQVLLPSKDVMQGTDEHVVCKVQHPNGNKEKNVPLPVIAELPPKVSVFVPPRDGFFGNPRKSKLICQATGFSPRQIQVSWLREGKQVGSGVTTDQVQAEAKESGPTTYKVTSTLTIKESDWLSQSMFTCRVDHRGLTFQQNASSMCVPDQDTAIRVFAIPPSFASIFLTKSTKLTCLVTDLTTYDSVTISWTRQNGEAVKTHTNISESHPNATFSAVGEASICEDDWNSGERFTCTVTHTDLPSPLKQTISRPKGVALHRPDVYLLPPAREQLNLRESATITCLVTGFSPADVFVQWMQRGQPLSPEKYVTSAPMPEPQAPGRYFAHSILTVSEEEWNTGETYTCVVAHEALPNRVTERTVDKSTGKPTLYNVSLVMSDTAGTCY light: QAVVTQPASVSGSPGQSITISCTGTSSDIGAYNYISWYQQHPGKAPKLIIYEVSNRPSGISYRFSGSKSGNTASLTISGLQAEDEANYYCSSYAGSISFGGGTKVTVLGQPKAAPSVTLFPPSSEELQANKATLVCLISDFYPGAVTVAWKADSSPVKAGVETTTPSKQSNNKYAASSYLSLTPEQWKSHRSYSCQVTHEGSTVEKTVAPTECS not shown | 0.032 µg/mL | ~0.9 nM | < 0.001 nM | 0.86 nM | 5300 fold
